The text below walks through data of patent publication US20200308299A1 (NATIONAL UNIVERSITY CORPORATION KOCHI UNIVERSITY, published 2020).

In assay [1] the target is T1, mouse Glypican-1 expressed on LLC-mGPC1-16 cells (mouse, UniProt Q9QZF2 24-529).
T1 sequence: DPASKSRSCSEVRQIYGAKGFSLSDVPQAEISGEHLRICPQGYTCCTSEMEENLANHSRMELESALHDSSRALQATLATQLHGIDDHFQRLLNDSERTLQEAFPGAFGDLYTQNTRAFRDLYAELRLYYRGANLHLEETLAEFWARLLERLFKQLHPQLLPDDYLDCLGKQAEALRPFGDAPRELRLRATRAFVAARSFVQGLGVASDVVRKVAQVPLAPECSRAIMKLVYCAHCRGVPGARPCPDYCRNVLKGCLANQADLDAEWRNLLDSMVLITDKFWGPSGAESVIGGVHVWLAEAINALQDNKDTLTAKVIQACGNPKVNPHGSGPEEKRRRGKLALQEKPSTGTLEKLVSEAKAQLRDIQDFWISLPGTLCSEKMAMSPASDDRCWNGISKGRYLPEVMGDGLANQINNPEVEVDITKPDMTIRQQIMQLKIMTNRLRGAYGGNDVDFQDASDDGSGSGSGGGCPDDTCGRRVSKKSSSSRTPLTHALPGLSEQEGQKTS
Kind of assay: cell-based or functional assay.

Assay [2] concerns the target T2, recombinant human Glypican-1 protein (R&D Systems, CF, 4519-GP-050) (human, UniProt P35052 24-530).
T2 construct: Bought protein; also called recombinant human GPC1
T2 sequence: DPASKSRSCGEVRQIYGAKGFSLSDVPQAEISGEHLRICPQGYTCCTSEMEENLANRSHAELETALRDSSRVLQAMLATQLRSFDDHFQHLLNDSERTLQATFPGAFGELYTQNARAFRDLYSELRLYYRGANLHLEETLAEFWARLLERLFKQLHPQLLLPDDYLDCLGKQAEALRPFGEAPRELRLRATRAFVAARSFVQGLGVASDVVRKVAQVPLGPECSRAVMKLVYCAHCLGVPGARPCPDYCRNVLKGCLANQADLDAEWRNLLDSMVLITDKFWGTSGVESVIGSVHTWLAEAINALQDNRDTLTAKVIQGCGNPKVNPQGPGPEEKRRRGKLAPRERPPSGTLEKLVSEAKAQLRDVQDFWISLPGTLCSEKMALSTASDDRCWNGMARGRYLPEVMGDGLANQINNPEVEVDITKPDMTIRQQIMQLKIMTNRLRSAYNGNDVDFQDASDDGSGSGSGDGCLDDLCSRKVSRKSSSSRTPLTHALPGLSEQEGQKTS
Kind of assay: ELISA on plate-coated recombinant human GPC1.

Assay [3] addresses T3, human Glypican-1 on the surface of human cancer cell strains (TE8, TE14 and others) (human, UniProt P35052 24-530).
T3 construct: Endogenous GPC1 of the cell strains; also called GPC1; GPC-1
T3 sequence: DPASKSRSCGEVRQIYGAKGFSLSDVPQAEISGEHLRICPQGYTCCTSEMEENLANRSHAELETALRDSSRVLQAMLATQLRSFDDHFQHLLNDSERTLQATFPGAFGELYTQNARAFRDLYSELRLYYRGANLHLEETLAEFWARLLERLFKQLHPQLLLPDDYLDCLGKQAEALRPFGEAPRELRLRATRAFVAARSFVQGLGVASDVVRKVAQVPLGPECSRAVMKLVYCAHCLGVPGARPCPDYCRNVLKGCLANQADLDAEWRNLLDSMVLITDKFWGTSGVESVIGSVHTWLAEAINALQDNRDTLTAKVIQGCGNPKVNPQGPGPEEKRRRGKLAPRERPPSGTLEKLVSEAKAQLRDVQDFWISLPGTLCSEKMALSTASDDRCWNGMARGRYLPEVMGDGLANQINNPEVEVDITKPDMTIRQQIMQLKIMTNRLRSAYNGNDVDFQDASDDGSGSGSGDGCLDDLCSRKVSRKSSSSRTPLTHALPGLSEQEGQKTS
Briefly: flow cytometry on TE8 cells, biotin-labelled 02b006 and streptavidin-PE.

The target in a further assay is T4, human Glypican-1 (human, UniProt P35052 24-530, limits assumed).
T4 construct: also called human GPC1
T4 sequence: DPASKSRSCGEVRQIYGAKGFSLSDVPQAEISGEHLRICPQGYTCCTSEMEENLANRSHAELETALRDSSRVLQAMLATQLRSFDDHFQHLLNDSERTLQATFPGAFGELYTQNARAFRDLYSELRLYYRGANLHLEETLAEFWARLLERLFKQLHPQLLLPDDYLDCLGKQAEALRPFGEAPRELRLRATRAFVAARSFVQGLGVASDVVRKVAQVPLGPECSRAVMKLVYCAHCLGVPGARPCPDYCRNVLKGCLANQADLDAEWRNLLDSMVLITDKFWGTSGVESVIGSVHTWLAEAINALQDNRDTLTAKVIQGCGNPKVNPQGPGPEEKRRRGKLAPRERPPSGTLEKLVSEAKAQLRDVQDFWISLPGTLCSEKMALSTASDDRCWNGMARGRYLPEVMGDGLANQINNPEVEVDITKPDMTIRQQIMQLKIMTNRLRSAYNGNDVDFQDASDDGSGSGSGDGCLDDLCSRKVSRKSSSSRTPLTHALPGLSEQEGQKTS
Briefly: phage scFv panning, ELISA on immobilised human GPC1, cell-ELISA and flow cytometry on human GPC1 transformants and TE14 (Example 1). (In general: An ELISA detects its analyte on a solid surface through an enzyme-linked reagent.)

B1: GPC1-CL-MMAF (clone 01a033 conjugated to MC-vc-PAB-MMAF) (antibody, V domains shown)
VH: QVQLKQSGPELVKPGASVKISCKASGYSFTGYYMHWVKQSPEKSLEWIGEINPSTGDTTYNQKFKAKATLTVDKSSSTAYMQLKSLTSEDSAVYYCAREKRDDGVFAYWGQGTLVTVSS
VL: DIVMSQSPKSMSMSVGERVALSCKASENVGTYVSWYQQKPEQSPKLLIYGASNRYTGVPDRFTGSGSATDFTLTISSVQAEDLADYYCGQSYSYPLTFGAGTKLELKR
modifications: MC-vc-PAB-MMAF bound by maleimide to reduced inter-strand cysteines; DAR 4.1 (printed as 3.8 in paragraph 359)
notes: Antibody-drug conjugate of mouse IgG2a clone 01a033; also called 01a033 ADC; GPC1 ADC
For B1, in assay [1], the “effect of suppressing growth (CellTiter-Glo, 72 hours), LLC-mGPC1-16 against LLC-control-7” value stood at 17 fold. Besides, in assay [2], the binding result is “binds”.

B2: anti-Glypican-1 antibody clone K090-02b006 (antibody, mouse IgG2a, kappa, V domains shown)
VH: EVQLVESGGGLVKPGGSRKLSCAASGFTFSDYGMHWVRQAPEKGLEWVAYISSGSSTIYYADTVKGRFTISRDNAKNTLFLQMTSLRSEDTAIYYCVRHSYYNYDIGGYYAMDYWGQGTSVTVSS
VL: DIVLTQSPSSLSASLGERVSLTCRASQEISGYLSWLQQKPDGTIKRLIYAASTLDSGVPKRFSGSRSGSDYSLTISSLESEDFADYYCLQYASYPLTFGAGTKLEIKR
notes: also called biotin-labeled 02b006; biotin-labeled anti-GPC1 antibody 02b006
B2: the binding result (in assay [3]; in the assay with human Glypican-1) was “binds” in each case.
